Reference: US20190225698A1 (JIANGSU HENGRUI MEDICINE, published 2019)
Positions count from the first letter of the chain named.

T1: murine CD40 expressed on transfected HEK293 cells (murine, UniProt P27512 20-289)
T1 construct: whole, on cells
T1 sequence (looked up): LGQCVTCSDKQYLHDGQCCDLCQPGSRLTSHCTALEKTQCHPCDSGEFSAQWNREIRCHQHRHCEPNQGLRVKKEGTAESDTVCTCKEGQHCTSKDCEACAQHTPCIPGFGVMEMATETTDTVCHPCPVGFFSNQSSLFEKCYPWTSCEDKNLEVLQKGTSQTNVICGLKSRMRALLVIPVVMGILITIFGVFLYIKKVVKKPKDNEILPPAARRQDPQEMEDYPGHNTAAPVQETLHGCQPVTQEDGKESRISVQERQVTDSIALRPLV

T2: murine CD137 expressed on transfected HEK293 cells (murine, UniProt P20334 24-256)
T2 construct: whole, on cells
T2 sequence (looked up): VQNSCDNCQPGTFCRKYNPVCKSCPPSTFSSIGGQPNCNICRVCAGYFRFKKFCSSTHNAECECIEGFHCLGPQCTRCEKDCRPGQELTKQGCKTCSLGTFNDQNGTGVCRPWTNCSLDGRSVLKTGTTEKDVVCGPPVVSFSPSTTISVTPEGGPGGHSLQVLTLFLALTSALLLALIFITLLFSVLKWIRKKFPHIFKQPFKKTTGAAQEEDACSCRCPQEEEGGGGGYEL

T3: human FAS expressed on transfected HEK293 cells (human, UniProt P25445 26-335)
T3 construct: whole, on cells
T3 sequence (looked up): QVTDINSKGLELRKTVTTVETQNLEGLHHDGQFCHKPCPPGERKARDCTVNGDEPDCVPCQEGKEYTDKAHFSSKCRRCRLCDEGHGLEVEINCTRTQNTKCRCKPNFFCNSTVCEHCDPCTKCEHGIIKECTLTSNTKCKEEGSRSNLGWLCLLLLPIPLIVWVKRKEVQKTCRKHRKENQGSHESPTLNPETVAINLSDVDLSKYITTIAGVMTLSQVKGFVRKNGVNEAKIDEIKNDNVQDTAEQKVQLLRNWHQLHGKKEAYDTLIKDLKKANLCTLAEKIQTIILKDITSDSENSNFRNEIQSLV

T4: murine FAS expressed on transfected HEK293 cells (murine, UniProt P25446 22-327)
T4 construct: whole, on cells
T4 sequence (looked up): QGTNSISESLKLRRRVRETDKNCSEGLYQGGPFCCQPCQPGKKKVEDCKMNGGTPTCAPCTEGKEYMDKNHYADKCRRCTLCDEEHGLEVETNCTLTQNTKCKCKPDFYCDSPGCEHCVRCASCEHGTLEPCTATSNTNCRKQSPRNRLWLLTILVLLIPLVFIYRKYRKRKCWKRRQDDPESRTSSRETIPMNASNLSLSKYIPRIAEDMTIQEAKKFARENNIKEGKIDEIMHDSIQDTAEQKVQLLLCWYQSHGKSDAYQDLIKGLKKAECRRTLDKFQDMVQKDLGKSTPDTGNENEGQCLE

T5: human TNFRSF1A expressed on transfected HEK293 cells (human, UniProt P19438 30-455)
T5 construct: whole, on cells
T5 sequence (looked up): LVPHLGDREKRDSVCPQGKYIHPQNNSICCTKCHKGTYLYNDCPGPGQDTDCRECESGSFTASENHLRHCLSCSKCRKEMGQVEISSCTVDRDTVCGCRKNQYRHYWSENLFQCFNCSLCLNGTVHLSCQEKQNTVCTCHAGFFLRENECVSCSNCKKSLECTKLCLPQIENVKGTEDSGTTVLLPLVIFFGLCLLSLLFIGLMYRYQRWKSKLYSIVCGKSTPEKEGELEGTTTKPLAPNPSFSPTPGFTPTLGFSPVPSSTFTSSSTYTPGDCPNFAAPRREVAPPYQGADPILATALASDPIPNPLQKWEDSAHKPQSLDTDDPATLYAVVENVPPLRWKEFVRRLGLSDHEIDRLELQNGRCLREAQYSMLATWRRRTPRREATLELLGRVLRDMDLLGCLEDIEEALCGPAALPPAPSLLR

T6: murine TNFRSF1A expressed on transfected HEK293 cells (murine, UniProt P25118 30-454)
T6 construct: whole, on cells
T6 sequence (looked up): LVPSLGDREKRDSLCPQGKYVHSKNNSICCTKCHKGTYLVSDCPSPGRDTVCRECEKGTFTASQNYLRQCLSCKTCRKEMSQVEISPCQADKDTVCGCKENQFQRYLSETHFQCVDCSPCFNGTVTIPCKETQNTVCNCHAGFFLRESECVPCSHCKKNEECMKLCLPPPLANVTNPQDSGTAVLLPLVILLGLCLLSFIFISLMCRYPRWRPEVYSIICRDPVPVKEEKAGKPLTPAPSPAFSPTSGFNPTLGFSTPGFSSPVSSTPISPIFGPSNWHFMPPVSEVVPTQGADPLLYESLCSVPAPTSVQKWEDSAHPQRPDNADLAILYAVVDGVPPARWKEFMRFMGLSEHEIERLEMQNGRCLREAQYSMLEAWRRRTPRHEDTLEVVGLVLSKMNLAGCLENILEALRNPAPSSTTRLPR

T7: murine CD27-FcHis fusion protein (murine, UniProt P41272 24-182, limits assumed)
T7 construct: Immobilized directly on the chip by amino coupling; also called mouse CD27; not shown: Fc and His tag
T7 sequence (looked up): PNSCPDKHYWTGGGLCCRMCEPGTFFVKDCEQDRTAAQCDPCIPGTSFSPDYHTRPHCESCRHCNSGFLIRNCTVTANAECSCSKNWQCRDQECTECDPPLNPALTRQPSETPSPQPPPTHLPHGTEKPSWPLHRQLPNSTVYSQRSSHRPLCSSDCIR

B1: anti-CD27 antibody mAb076 (IgG1 form) (antibody, V domains shown)
VH: EVQLVESGGGLVQPGGSLRLSCAASGFTFSDYGIHWVRQAPGKGLEWIGWINPNRGSTNYAQKFQGRVTISRDNSKNTLYLQLNSLRAEDTAVYYCARDYGYTWYFDVWGQGTLVTVSS
VL: DIQLTQSPSSLSASVGDRVTITCRASQDISSVLAWYQQKPGKAPKLLIYAASSLQSGVPSRFSGSGSGTDFTLTISSLQPEDFATYYCQQRDAWPLTFGQGTKVEIK
notes: Human antibody from phage display
B2: anti-CD27 antibody mAb077 (IgG1 form) (antibody, V domains shown)
VH: B1 VH with D31G, N59K, Y100P
VL: B1 VL with V32D, S53T, L96P
notes: as for B1

Assays:
[1] = molecular target: T8, human CD40 expressed on transfected HEK293 cells (human, UniProt P25942 21-277); experiment: flow cytometry on transfected HEK293 cells
T8 construct: whole, on cells
T8 sequence (P25942 21-277): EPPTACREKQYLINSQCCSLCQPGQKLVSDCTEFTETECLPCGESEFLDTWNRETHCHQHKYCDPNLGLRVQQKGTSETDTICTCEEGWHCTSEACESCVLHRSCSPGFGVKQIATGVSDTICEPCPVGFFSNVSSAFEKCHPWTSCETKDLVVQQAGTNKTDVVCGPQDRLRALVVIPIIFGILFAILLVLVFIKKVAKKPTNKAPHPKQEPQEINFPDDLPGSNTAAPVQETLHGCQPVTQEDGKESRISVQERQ

[2] = molecular target: T1, murine CD40 expressed on transfected …; experiment: flow cytometry on transfected HEK293 cells
[3] = molecular target: T9, human CD137 expressed on transfected HEK293 cells (human, UniProt Q07011 24-255); experiment: flow cytometry on transfected HEK293 cells
T9 construct: whole, on cells
T9 sequence (Q07011 24-255): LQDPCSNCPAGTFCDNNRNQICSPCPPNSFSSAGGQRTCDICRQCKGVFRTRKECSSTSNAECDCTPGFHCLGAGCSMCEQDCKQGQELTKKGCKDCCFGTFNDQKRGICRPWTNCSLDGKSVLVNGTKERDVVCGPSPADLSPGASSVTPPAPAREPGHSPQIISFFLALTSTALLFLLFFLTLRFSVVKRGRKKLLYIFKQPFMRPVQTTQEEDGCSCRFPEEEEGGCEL

[4] = molecular target: T2, murine CD137 expressed on transfected …; experiment: flow cytometry on transfected HEK293 cells
[5] = molecular target: T3, human FAS expressed on transfected …; experiment: flow cytometry on transfected HEK293 cells
[6] = molecular target: T4, murine FAS expressed on transfected …; experiment: flow cytometry on transfected HEK293 cells
[7] = molecular target: T5, human TNFRSF1A expressed on transfected …; experiment: flow cytometry on transfected HEK293 cells
[8] = molecular target: T6, murine TNFRSF1A expressed on …; experiment: flow cytometry on transfected HEK293 cells
[9] = molecular target: T7, murine CD27-FcHis fusion protein; experiment: SPR (Biacore), murine CD27-FcHis immobilized, antibody as analyte
Procedure: The affinity of the antibody binding to […] CD27 was also determined using SPR. In this experiment, the murine CD27-FcHis fusion protein was directly immobilized on a CMS chip (600 RU) by amino coupling. Antibodies at different concentrations (0.39, 0.78, 1.56, 3.13, 6.25, 12.5, 25, 50, 100 nM) were loaded at a flow rate of […] for 30 seconds with a dissociation time of 1800 seconds.

Row | Binder | binding result [1] | binding result [2] | binding result [3] | binding result [4] | binding result [5] | binding result [6] | binding result [7] | binding result [8] | binding result [9]
1 | B1 | no binding (tested: 100 nM) | no binding (tested: 100 nM) | no binding (tested: 100 nM) | no binding (tested: 100 nM) | no binding (tested: 100 nM) | no binding (tested: 100 nM) | no binding (tested: 100 nM) | no binding (tested: 100 nM) | binds
2 | B2 | no binding (tested: 100 nM) | no binding (tested: 100 nM) | no binding (tested: 100 nM) | no binding (tested: 100 nM) | no binding (tested: 100 nM) | no binding (tested: 100 nM) | no binding (tested: 100 nM) | no binding (tested: 100 nM) | binds
